Source: patent US9096835B2, “DNA polymerase” (Medical Research Council, priority 2003, dated 2015)

Columns and labels:
Format in all cases: biochemical
[1] = Incorporation and extension of 5-nitroindole-5′-triphosphate; conditions: 50° C., identical conditions as 4D11 and 5D4; data not shown
Protocol: (§1) 50 pmol of ^32P-labelled primer and 100 pmol of template in a volume of 44 μl were annealed in 1× Taq buffer. 4D11 or 5D4 polymerase as cell lysate (6 μl) was added and reactions were incubated at 50° C. for 15 minutes followed by addition of d5NITP (1 μl in total volume of 50 µL final dNTP concentration 40 μM). 8 μl samples were taken at various time points and added to 8 μl stop solution (7M urea, 100 mM EDTA containing xylene cyanol F). At the end of the time course the 4 native dNTPs were added (final concentration each dNTP 40 μM) and reactions incubated at 50° C. for a further 30 minutes.

[2] = system: template containing 5-Nitroindole; assay: Primer extension opposite 5-nitroindole; conditions: 50° C., cell lysate, identical conditions as 4D11 and 5D4; data not shown
Protocol: as §1, with “one dNTP” for “d5NITP”, “μl,” for “µL”, “remaining 3” for “4 native”, “minutes. Reaction samples were electrophoretically separated using 20% polyacrylamide gels at 25 W for 4 hours. The resultant gels were dried and scanned using a phosphorimager (Molecular Dynamics). Data was processed using the program ImageQuant (Molecular Dynamics).” for “minutes.”

[3] = system: abasic sites and 5-hydroxy hydantoins; assay: Hairpin ELISA lesion bypass screen; conditions: ELISA based activity screen
Description: The below protocol is a sensitive method to measure polymerase activity both for the incorporation of unnatural nucleotide substrates (added to the reaction mixture) or the extension or replication of unnatural nucleotide substrates (incorporated as part of the hairpin oligo).
The assay comprises a hairpin oligonucleotide which constitutes both primer and template in one. In contains as part of the hairpin a biotinylated dU residue, which allows capture of the hairpin oligonucleotide on streptavidin-coated surfaces.
The oligonucleotide folds up into a hairpin with a 5′ overhang, which serves as the template strand for the polymerase (typical sequence: 5′-AGCTACCATGCCTGCACGCAGTCGGCATCCGTCGCGACCACG TT5 TTCGTGGTCGCGACGGATGCCG-3′ (SEQ ID NO: 52), bases involved in hairpin formation are underlined, 3′ base is in bold, 5=dU-biotin).
Extension reactions are carried out in the presence of small amounts of a labelled nucleotide typically DIG-16-dUTP. Product is captured (for example on a streptavidin coated ELISA plate) and incorporation of labelled nucleotide into the product strand is measured (using for example an anti-DIG antibody) and taken as a measure of polymerase activity. […]

[4] = Catalytic efficiency kcat/Km

wtTaq: Thermus aquaticus (Taq) wild type DNA polymerase [reference compound]
incorporation and extension of d5NITP [1]: almost undetectable extension reactions | extension opposite 5-nitroindole [2]: almost undetectable extension reactions

B1: 3A10: third round clone, abasic site bypass; SEQ ID NO: 86 (protein)
chain: MAMLPLFEPKGRVLLVDGHHLAYRTFFALKGLTTSRGEPVQVVYGFAKSLLKALKEDGYKAVFVVFDAKAPSFRHKAYEAYRAGRAPTPQDFPRQLALIKELVDLLGFTRLEVPGYEADDVLATLAKKAEKEGYEVRILTADRGLYQLVSDRVAVLHPEGHLITPEWLWEKYGLRPEQWVDFRALVGDPSDNLPGVKGIGEKTALKLLKEWGSLENLLKNLDRVKPENVREKIKAHLEDLRLSLELSRVRTDLPLEVDLAQGREPDREGLRAFLERLEFGSLLHEFGLLESPKALEEAPWPPPEGAFVGFVLSRKEPMWADLLALAAARGGRVHQAPEPYKALRDLKEARGLLAKDLSVLALREGLGLPPGDDPMLLAYLLDPSNTTPEGVARRYGGEWTEEAGERAALSERLFANLWGRLEGEERLLWLYREVERPLSAVLAHMETTGVRLDVAYLRALSLEVAEEIARLEAEVFRLAGRPFNLNSRDQLERVLFDELGLPAIGKTEKTGKRSTSAAVLEALREAHPIVEKILQYRELTKLKSTYIDPLPDLIHPRTGRLHTRFNQTATATGRLSSSDPNLQNIPVRTPLGQRIRRAFIAEEGWLLVVLDYSQMELRVLAHLSGDENLIRVFQEGKDIHTQTASWMFGVPPEAVDPLMRRAAKTVNFGVLYGMSAHRLSQELSIPYEEAVAFIERYFQSFPKVRAWIEKTLEEGRRRGYVETLFGRRRYVPDLNARMKSVRGAAERMAFNMPVQGTAADLMKLAMVKLFPRLREMGARMLLQVHDELLLEAPQARAEEVAALAKEAMEKAYPLAVPLEVEVGIGEDWLSAKE
modifications: Mutant Taq polymerase
proficiency at lesion bypass compared with wild type Taq [3]: up to two orders of magnitude

B2: M1: Taq mutant G84A, D144G, K314R, E520G, F598L, A608V, E742G; SEQ ID NO: 1 (protein)
chain: MRGMLPLFEPKGRVLLVDGHHLAYRTFHALKGLTTSRGEPVQAVYGFAKSLLKALKEDGDAVIVVFDAKAPSFRHEAYGGYKAARAPTPEDFPRQLALIKELVDLLGLARLEVPGYEADDVLASLAKKAEKEGYEVRILTADKGLYQLLSDRIHVLHPEGYLITPAWLWEKYGLRPDQWADYRALTGDESDNLPGVKGIGEKTARKLLEEWGSLEALLKNLDRLKPAIREKILAHMDDLKLSWDLAKVRTDLPLEVDFAKRREPDRERLRAFLERLEFGSLLHEFGLLESPKALEEAPWPPPEGAFVGFVLSRREPMWADLLALAAAAGGRVHRAPEPYKALRDLKEARGLLAKDLSVLALREGLGLPPGDDPMLLAYLLDPSNTTPEGVARRYGGEWTEEAGERAALSERLFANLWGRLEGEERLLWLYREVERPLSAVLAHMEATGVRLDVAYLRALSLEVAEEIARLEAEVFRLAGHPFNLNSRDQLERVLFDELGLPAIGKTEKTGKRSTSAAVLGALREAHPIVEKILQYRELTKLKSTYIDPLPDLIHPRTGRLHTRFNQTATATGRLSSSDPNLQNIPVRTPLGQRIRRAFIAEEGWLLVVLDYSQIELRVLAHLSGDENLIRVFQEGRDIHTETASWMFGVPREAVDPLMRRAAKTINFGVLYGMSAHRLSQELAIPYEEAQAFIERYFQSFPKVRAWIEKTLEEGRRRGYVETLFGRRRYVPDLEARVKSVRGAAERMAFNMPVQGTAADLMKLAMVKLFPRLEEMGARMLLQVHDELVLEAPKERAEAVARLAKEVMEGVYPLAVPLEVEVGIGEDWLSAKE
modifications: Mutant Thermus aquaticus DNA polymerase
kcat/Km relative to Taq wild type [4]: 14%

B3: 3D1: third round clone, four mismatch extension; SEQ ID NO: 98 (protein)
chain: MAMLPLFEPKGRVLLVDGHHLAYRTFFALKGPTTSRGEPVQVVYGFAKSLLKALKEDGYKAVFVVFDAKAPSFRHKAYEAYRAGRAPTPEDFPRQLALIKELVDLLGFTRLEVPGYEADDVLATLAKKAEKEGYEVRILTADRGLYQLVSDRVAVLHPEGHLITPEWLWEKYGLRPEQWVDFRALVGDPSDNLPGVKGIGEKTALKLLKEWGSLENLLKNLDRVKPENVREKIKAHLEDLRLSLELSRVRTDLPLEVDLAQRREPDREGLRAFLERLEFGSLFHEFGLLESPKALEEAPWPPPEGAFVGFVLSRKEPMWADLLALAAARGGRVHRAPEPYKALRDLKEARGLLAKDLSVLALREGLGLPPGDDPMLLAYLLDPSNTTPEGVARRYGGEWTEEAGERAALSERLFANLWGRLEGEERLLWLYREVERPLSAVLAHMEATGVRLDVAYLRALSLEVAEEIARLEAEVFRLAGHPFNLNSRDQLEMVLFDELRLPALGKTQKTGKRSTSAAVLEALREAHPIVEKILQYRELTKLKSTYIDPLSDLIHPRTGRLHTRFNQTATATGRLSSSDPNLQNIPVRTPLGQRIRRAFIAEEGWLLVVLDYSQIELRVLAHLSGDENLIRVFQEGRDIHTETASWMFGVPREAVDPLMRRAAKTINFGVLYGMSAHRLSQELAIPYEEAQAFIERYFQSFPKVRAWIEKTLEEGRRRGYVETLFGRRRYVPDLEARVKSVREAAERMAFNMPVQGTAADLMKLAMVKLFPRLGETGARMLLQVHDELVLEAPKERAEAVARLAKEAMEGVYPLAVPLEVEVGIGEDWLSAKG
modifications: Mutant Taq polymerase
proficiency at lesion bypass compared with wild type Taq [3]: up to two orders of magnitude
